Consider 1 molecule from PMC5379943 (The Journal of Cell Biology, 2017).

For the assay, the target named is T1, His-PLEKHM1 (1–300) (UniProt Q9Y4G2 1-300).
T1 construct: PLEKHM1, residues 1–300; also called His-tagged PLEKHM1 (1–300); source: purified
The assay is described as follows: pull-down; competition: GST-Arl8b as bait incubated with His-PLEKHM1 (1–300) and increasing concentrations of MBP-SKIP (1–300); immunoblot. The note with it: both partners purified.

B1: GST-Arl8b (natural protein, UniProt Q9NVJ2 1-186, looked up)
chain: MLALISRLLDWFRSLFWKEEMELTLVGLQYSGKTTFVNVIASGQFSEDMIPTVGFNMRKVTKGNVTIKIWDIGGQPRFRSMWERYCRGVNAIVYMIDAADREKIEASRNELHNLLDKPQLQGIPVLVLGNKRDLPNALDEKQLIEKMNLSAIQDREICCYSISCKEKDNIDITLQWLIQHSKSRRS
notes: Arl8b small GTPase; source: E. coli BL21, purified on glutathione resin
As for B1, the binding result is reported as “binds”.
